In US20070134221A1 (published 2007):
Numbering of substitutions follows the chain as printed. In names and notes the source's numbering stands.

B1: C52F peptide (peptide)
peptide: NHTTWMEWDREINNYTSLIHSLIEESQNLQEKNEQELLELDKWASLWNWFNIKIK
B2: C52L peptide (peptide)
peptide: B1 peptide with I23F, N33A, L38F

Assays:
Assay in all cases: cell-based or functional assay
[1] = molecular target: envelope glycoprotein of virus isolate HIV-1 JFRL (HIV-1 JFRL)
[2] = molecular target: envelope glycoprotein of virus isolate HIV-1 DJ258 (HIV-1 DJ258)
[3] = molecular target: envelope glycoprotein of virus isolate HIV-1 BZ162 (HIV-1 BZ162)
[4] = molecular target: envelope glycoprotein of virus isolate HIV-1 Case C 7/86 (HIV-1 Case C 7/86)
[5] = molecular target: envelope glycoprotein of virus isolate HIV-1 94ZW103 (HIV-1 94ZW103)
[6] = molecular target: envelope glycoprotein of virus isolate HIV-1 UG270 (HIV-1 UG270)
[7] = molecular target: envelope glycoprotein of virus isolate HIV-1 CM.235 (HIV-1 CM.235)
[8] = molecular target: envelope glycoprotein of virus isolate HIV-1 NL4-3 (HIV-1 NL4-3)

Row | Binder | IC50 (nM), Human PBMC Infectivity Assays [1] [nM] | IC50 (nM), Human PBMC Infectivity Assays [2] [nM] | IC50 (nM), Human PBMC Infectivity Assays [3] [nM] | IC50 (nM), Human PBMC Infectivity Assays [4] [nM] | IC50 (nM), Human PBMC Infectivity Assays [5] [nM] | IC50 (nM), Human PBMC Infectivity Assays [6] [nM] | IC50 (nM), Human PBMC Infectivity Assays [7] [nM] | IC50 (nM), Human PBMC Infectivity Assays [8] [nM]
1 | B1 | 5 | 9 | 2 | 49 | 4 | 68 | 11 | 23
2 | B2 | 6 | 11 | 3 | 17 | 3 | 61 |  | 20
